Assay results from patent US20110039771A1 (University of California, published 2011).
Where no end group is shown, it is not given here.

What was measured:
Assay in all cases: dot blot: peptide on nitrocellulose, probed with biotinylated-HN and streptavidin-HRP
[1] = target: T1, SHLP4 (human)
T1 construct: Dotted on nitrocellulose; also called small humanin-like peptide 4; SHLP4 (M)
T1 peptide: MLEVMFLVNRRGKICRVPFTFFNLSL
Method: (§1) FIG. 12 HN binds to SHLP2 and SHLP4. 2, 5 and 10 nmol of IGF-1 (negative control), HN, SHLP1, 2 or 4 were dotted on to nitrocellulose membrane and left to dry. The membrane was blocked, incubated with biotinylated-HN and streptavidin-HRP and exposed by autoradiography.
(§2) To test a dimerization hypothesis, we performed a dot-blot using biotinylated-HN. Two, 5 or 10 nmol IGF-I (negative control), HN (positive control) or SHLP peptide were dotted on to nitrocellulose membrane, and their ability to bind to biotinylated-HN was assessed immunologically. […] Specific interactions that occur may be determined using, e.g., dot blots with biotinylated SHLPs, and/or antibodies against specific SHLPs.

[2] = target: T2, SHLP2 (human)
T2 construct: Dotted on nitrocellulose; also called small humanin-like peptide 2; SHLP2 (M)
T2 peptide: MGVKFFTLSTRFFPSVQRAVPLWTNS
Method: as §1, §2

[3] = target: T3, SHLP1 (human)
T3 construct: Dotted on nitrocellulose; also called small humanin-like peptide 1; SHLP1 (M)
T3 peptide: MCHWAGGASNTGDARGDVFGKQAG
Method: as §1, §2

[4] = target: T4, humanin (HN) (human)
T4 construct: Unlabelled HN dotted on nitrocellulose as positive control; also called Humanin (M)
T4 peptide: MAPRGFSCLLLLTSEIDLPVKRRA
Method: as §1, §2

- binding result [1]: binds
- binding result [2]: binds
- binding result [4]: binds
B1: biotinylated-HN (peptide)
peptide: MAPRGFSCLLLLTSEIDLPVKRRA
modifications: also: biotinylated, site not given here
notes: Probe in solution in the dot blot, detected with streptavidin-HRP; also called biotinylated humanin
- binding result [3]: no binding (tested: 2, 5 or 10 nmol dotted)
